Source: paper PMC2141705

Molecular target: calnexin (mouse (endogenous in AtT-20)) (UniProt P35564)
Assay: co-IP

UniProt P35564, sequence (P35564 21-591): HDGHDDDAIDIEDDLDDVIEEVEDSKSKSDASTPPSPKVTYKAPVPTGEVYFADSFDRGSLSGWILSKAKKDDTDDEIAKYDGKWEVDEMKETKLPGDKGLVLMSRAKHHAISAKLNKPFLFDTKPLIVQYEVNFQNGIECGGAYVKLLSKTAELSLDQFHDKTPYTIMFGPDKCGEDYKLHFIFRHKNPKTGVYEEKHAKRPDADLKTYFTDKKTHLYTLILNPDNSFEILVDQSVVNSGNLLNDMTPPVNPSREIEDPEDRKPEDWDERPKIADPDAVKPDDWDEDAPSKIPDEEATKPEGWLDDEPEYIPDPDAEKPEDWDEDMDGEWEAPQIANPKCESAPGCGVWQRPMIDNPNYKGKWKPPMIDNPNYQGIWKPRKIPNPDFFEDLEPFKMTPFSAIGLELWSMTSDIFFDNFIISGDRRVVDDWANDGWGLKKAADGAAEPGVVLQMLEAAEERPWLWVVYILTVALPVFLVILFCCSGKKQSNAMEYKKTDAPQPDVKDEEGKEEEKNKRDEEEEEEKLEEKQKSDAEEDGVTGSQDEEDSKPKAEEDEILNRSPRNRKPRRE

With “proPC2 (proenzyme form of prohormone convertase 2) (from UniProt P28841 25-637)” the percent of total radiolabeled proPC2 coimmunoprecipitated was 5%.
